Laboratory results: patent US9308238B2, “Compositions and methods for modulating EMT and uses thereof” (Whitehead Institute for Biomedical Research, priority 2010, dated 2016)

Assays:
Format in all cases: cell-based, human
HMLE^24+ cells = assay: Boyden chamber migration assay, HMLE^24+ cells
Method: FIGS. 3A-3E. Autocrine Signaling controls migration and mammosphere formation.
(§1) FIGS. 5A-5H. Concomitant stimulation of Wnt and TGF-beta pathways allows HMLE^24+ cells to enter into a mesenchymal and SC-like state. (FIG. 5A) RT-PCR: N-Cadherin, Zeb1 and Zeb2, L32 was loading control, n=3. Prior RNA isolation, HMLE^24+-shGFP or -shSFRP1 (stable knockdown of SFRP1, FIG. 12A) cells were treated for 3 days with daily doses of indicated factors: anti-DKK1 antibody (10 μg/ml), anti-E-Cadherin antibody (1 μg/ml), TGF-beta 1 (5 ng/ml), Wnt5a (250 ng/ml), (FIG. 5B) Brightfield microscopy: images of control, TGF-beta- and iEMT-cocktail treated HMLE^24+ cells after 14 days of treatment as indicated (see also FIG. 12D). (FIG. 5C) RT-PCR: Zeb1, Zeb2, E-Cadherin and N-Cadherin, L32 was loading control, n=3. After 14 day treatment, cells were expanded in absence of further stimulation for 4 passages. Shown are PBS-treated control HMLE^24+-shGFP and HMLE^24+-shSFRP1 cells, two HMLE^24+-shGFP cultures treated with TGF-beta 1 (TGF-β-a and -b), two HMLE^24+-shSFRP1 cultures treated with the iEMT-cocktail (iEMT-a and -b). (FIG. 5D) Immunoblot: EMT markers and associated autocrine pathways, cells generated as described in (C). (FIG. 5E) Migration (Boyden Chamber Assay) and Mammosphere Assay: cells generated as indicated in (C), *control vs. TGF-beta treatment, p<1×10^−4, **control vs. iEMT-treatment, p<1×10^−9, n(migration)=3, n(mammospheres)/1000 cells, n=7. (FIG. 5F) Flow cytometry: CD44 and CD24 cell-surface marker expression in control, TGF-beta-a and iEMT-a cells generated as described in (C). (FIG. 5G) Lung metastasis: cells expanded for 8 passages after cessation of treatment as described in (C) were transformed with RAS; 1.0×10^5 cells were injected into the mammary fat pads of mice; GFP-labeled metastases on the surface of the lungs were quantified; *control vs. all other groups, p<0.05, n=5 mice/group. […]

HTwist cells [1] = assay: Boyden chamber migration assay, HTwist cells (single vs combined proteins); conditions: DKK1 1 μg/ml, SFRP1, BMP4 0.5 μg/ml
Method: Migration and invasion assays. For migration assays, 2×10^4 cells were seeded into 24-well cell culture inserts with 8-μm pores (Boyden Chambers, BD Falcon). […] After 12-48 hr, the cells on the upper surface of the filters were removed with a cotton swab. For visualization, cells on lower filter surfaces were fixed and stained with a Diff-Quick staining kit (Dade Behring).

HTwist cells [2] = assay: Mammosphere assay, HTwist cells; conditions: for reduction in sphere-forming efficiency, primary mammosphere formation: single vs combined proteins, daily for 5 days (FIG. 10C)
Method: FIGS. 10A-10E. […] (FIG. 10E) Mammosphere Assay: HTwist and MSP were treated daily during mammosphere formation (5 days) with BMP4 (0.5 μg/ml), SB431542 (10 μM) or a combination of both, n(mammospheres)/1000 cells, n=6.
(§2) Mammosphere and tumorsphere assay. Assays were performed as previously described with modifications (Dontu et al., 2003): 1000 cells/well were seeded in 96-well ultra-low adhesion plates (Corning) in MEGM medium containing 1.3% methylcellulose (Stem Cell Technologies) supplemented with 20 ng/ml EGF, 10 ng/ml bFGF (both Sigma) and B27 (Gibco). Primary spheres were dissociated by trypsinization and replated for secondary sphere formation after a period of 5-7 days.

MSP-RAS cells = assay: Tumorsphere assay, MSP-RAS cells; conditions: for reduction of primary tumorsphere formation: SFRP1 1 μg/ml, BMP4 0.5 μg/ml daily during primary sphere formation; for reduction of secondary tumorsphere formation: treated during primary sphere formation only
Method: FIGS. 4A-4G. Autocrine Signaling controls tumorigenicity and metastasis of MSP-RAS cells. (FIG. 4A) Migration assay: RAS-transformed MSP (MSP-RAS) were seeded in Boyden Chamber migration assays and recombinant SFRP1 (1 μg/ml) and BMP4 protein (0.5 μg/ml) were added; *control vs. single treatment, p<1×10^−8, **single vs. double treatment with SFRP1 and BMP4 (S+B), p<1×10^−4, n=3. (FIG. 4B) Tumorsphere assay: SFRP1 (1 μg/ml) and BMP4 protein (0.5 μg/ml) were added daily during primary sphere formation (5 days), spheres were dispersed and seeded for secondary sphere formation in the absence of further treatment; #control primary vs. secondary sphere formation, p=0.001; *control vs. single treatment, p<1×10^−4, **single vs. double treatment with SFRP1 and BMP4 (S+B), p<0.01, n(tumorspheres)/1000 cells, n=6. (FIG. 4C) Flow cytometry: CD44 and CD24 cell-surface markers of dissociated primary tumorspheres as described in (B). (FIG. 4D) Orthotopic tumor formation after ex vivo treatment during tumorsphere formation: primary tumorspheres as generated in (B) were pooled, dissociated and 1.0×10^5 cells were implanted in the fat pads of mice; shown are tumor weight and incidence, *indicates absence of tumor, n=5 mice/group. (FIG. 4E) Lung metastasis: fluorescence microscopy images of the major left lung lobe showing GFP-expressing metastatic nodules and quantification of the number of lung surface metastases; *control vs. SFRP1 treatment, p<0.05, **SFRP1 vs. BMP4 or double treatment (S+B), p<0.05, n=5 mice/group. (FIG. 4F) Liver metastasis: fluorescence microscopy images of the liver surface showing GFP-expressing micro-metastatic nodules after implantation of cells as described in (D) and quantification: 5 fields of liver surface were counted per mouse, *control vs. single treatment, p<0.05, **single vs. double treatment (S+B), p<0.05, n=5 mice/group. (FIG. 4G) Tumorigenicity assay: MSP-RAS cells suspended in PBS containing SFRP1 (1 μg/ml), BMP4 (0.5 μg/ml), and a combination of both (S+B) were implanted subcutaneously in mice at indicated cell numbers. In addition, 20 μl of PBS or PBS with proteins at indicated doses was injected peri-tumorally at 1, 2, 3 and 7 days after implanting the MSP-RAS cells.
as §2

HMLE-iEMT-a cells = assay: Mammosphere assay, iEMT-cells; conditions: SFRP1 1 μg/ml/d, BMP4 0.5 μg/ml/d; extent comparable to HTwist and MSP cells
Method: as §1, with “(FIG. 5D) Immunoblot: EMT markers and associated autocrine pathways, cells generated as described in (C). (FIG. 5E) Migration (Boyden Chamber Assay) and Mammosphere Assay: cells generated as indicated in (C), *control vs. TGF-beta treatment, p<1×10^−4, **control vs. iEMT-treatment, p<1×10^−9, n(migration)=3, n(mammospheres)/1000 cells, n=7. (FIG. 5F) Flow cytometry: CD44 and CD24 cell-surface marker expression in control, TGF-beta-a and iEMT-a cells generated as described in (C).” left out

Molecule: TGF-beta 1: recombinant TGF-beta 1 protein, used at 5 ng/ml
- increase in ability to migrate vs untreated control cells (HMLE^24+ cells; after 14 day treatment): not in motility

B1: SFRP1: Recombinant human SFRP1 protein (R&D Systems), secreted decoy receptor binding canonical and non-canonical Wnt ligands (protein, UniProt Q8N474 32-314, looked up)
Secreted frizzled-related …: SEYDYVSFQSDIGPYQSGRFYTKPPQCVDIPADLRLCHNVGYKKMVLPNLLEHETMAEVKQQASSWVPLLNKNCHAGTQVFLCSLFAPVCLDRPIYPCRWLCEAVRDSCEPVMQFFGFYWPEMLKCDKFPEGDVCIAMTPPNATEASKPQGTTVCPPCDNELKSEAIIEHLCASEFALRMKIKEVKKENGDKKIVPKKKKPLKLGPIKKKDLKKLVLYLKNGADCPCHQLDNLSHHFLIMGRKVKSQYLLTAIHKWDKKNKEFKNFMKKMKNHECPTFQSVFK
- motility of HMLE^24+ cells upon addition of protein (HMLE^24+ cells; 0.5 μg/ml in growth medium): not further reduced
- reduction of migration, single vs combined proteins (HTwist cells [1]): 5 fold
- reduction of primary mammosphere number (HTwist cells [2]; added daily for 5 days (FIG. 3D)): 50%
- reduction in sphere-forming efficiency, primary mammosphere formation (HTwist cells [2]): 40%
- reduction of secondary sphere formation (HTwist cells [2]; treated during primary sphere formation only): 90%
- reduction of primary tumorsphere formation (MSP-RAS cells): 40%
- reduction of secondary tumorsphere formation (MSP-RAS cells): 40%
- effect on mammosphere formation of iEMT-cells (HMLE-iEMT-a cells): inhibited

B2: BMP4: Recombinant BMP4 protein obtained from Stemgent (protein, UniProt P12644 293-408, looked up)
Bone morphogenetic protein 4: SPKHHSQRARKKNKNCRRHSLYVDFSDVGWNDWIVAPPGYQAFYCHGDCPFPLADHLNSTNHAIVQTLVNSVNSSIPKACCVPTELSAISMLYLDEYDKVVLKNYQEMVVEGCGCR
- reduction of migration, single vs combined proteins (HTwist cells [1]): 2 fold
- reduction in sphere-forming efficiency, primary mammosphere formation (HTwist cells [2]): 64%
- reduction of primary tumorsphere formation (MSP-RAS cells): 40%
- reduction of secondary tumorsphere formation (MSP-RAS cells): 40%
- effect on mammosphere formation of iEMT-cells (HMLE-iEMT-a cells): inhibited
